Two molecules from patent WO2022138911A1 (dated 2022) can be followed below.

The assay deals with SARS-CoV2 Spike protein (ECD, His & Flag Tag) (GenScript, Z03481) (135 kDa) (SARS-CoV2 virus, UniProt P0DTC2 14-1213).

B1: purified recombinant 7G7.2 antibody (antibody, human IgG1, kappa)
heavy: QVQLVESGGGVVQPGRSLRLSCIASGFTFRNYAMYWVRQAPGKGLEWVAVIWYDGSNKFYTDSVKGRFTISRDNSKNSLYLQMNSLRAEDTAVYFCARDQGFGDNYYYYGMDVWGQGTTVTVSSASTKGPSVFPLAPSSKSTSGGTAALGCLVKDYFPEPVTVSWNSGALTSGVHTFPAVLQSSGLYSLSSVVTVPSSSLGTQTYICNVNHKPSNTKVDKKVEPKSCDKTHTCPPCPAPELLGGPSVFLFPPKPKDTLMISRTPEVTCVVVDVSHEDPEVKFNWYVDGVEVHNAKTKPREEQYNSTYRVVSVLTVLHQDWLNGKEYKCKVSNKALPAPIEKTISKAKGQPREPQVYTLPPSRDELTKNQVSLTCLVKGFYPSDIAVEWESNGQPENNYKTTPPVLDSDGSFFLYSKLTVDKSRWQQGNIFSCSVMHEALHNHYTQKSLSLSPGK
light: SYELTQPPSVSVSPGQTARISCSGDALPKEYAYWYQQKPGQAPVLVIYKDSERPSGIPERFSGSSSGTTVTLTISGVQAEDEADYYCQLADSSMHYVVFGGGTKLTVLRTVAAPSVFIFPPSDEQLKSGTASVVCLLNNFYPREAKVQWKVDNALQSGNSQESVTEQDSKDSTYSLSSTLTLSKADYEKHKVYACEVTHQGLSSPVTKSFNRGEC
Broadly, the Kd is the free concentration of one partner at which half of the binding sites on the other are occupied at equilibrium, for simple one-to-one binding. A high value points to a looser complex. B1 came in with a Kd of 1.55 nM.

B2: purified recombinant 7G7.1 antibody (antibody, human IgG1, lambda)
heavy: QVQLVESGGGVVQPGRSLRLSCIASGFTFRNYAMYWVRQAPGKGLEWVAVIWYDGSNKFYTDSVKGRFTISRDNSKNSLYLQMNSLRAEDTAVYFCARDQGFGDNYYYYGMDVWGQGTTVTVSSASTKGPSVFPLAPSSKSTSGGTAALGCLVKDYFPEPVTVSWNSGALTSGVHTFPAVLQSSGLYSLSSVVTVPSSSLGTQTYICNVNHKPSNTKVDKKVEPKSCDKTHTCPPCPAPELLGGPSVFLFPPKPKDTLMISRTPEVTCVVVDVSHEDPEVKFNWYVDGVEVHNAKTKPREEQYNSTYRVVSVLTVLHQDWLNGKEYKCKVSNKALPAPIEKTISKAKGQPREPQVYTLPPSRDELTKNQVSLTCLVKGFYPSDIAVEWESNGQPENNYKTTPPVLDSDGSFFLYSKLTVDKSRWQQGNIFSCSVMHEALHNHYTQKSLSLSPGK
light: SYELTQPPSVSVSPGQTARISCSGDALPKEYAYWYQQKPGQAPVLVIYKDSERPSGIPERFSGSSSGTTVTLTISGVQAEDEADYYCQLADSSMHYVVFGGGTKLTVLGQPKAAPSVTLFPPSSEELQANKATLVCLISDFYPGAVTVAWKADSSPVKAGVETTTPSKQSNNKYAASSYLSLTPEQWKSHRSYSCQVTHEGSTVEKTVAPTECS
In turn, B2 showed a dissociation constant Kd of 2.04 nM.
